Key:
Test in all cases: cell-based or functional assay
[1] = target: T1, factor VIIIa A1/A3C1C2 dimer, wild type (human, UniProt P00451 20-391; P00451 1709-2351)
T1 sequence 1: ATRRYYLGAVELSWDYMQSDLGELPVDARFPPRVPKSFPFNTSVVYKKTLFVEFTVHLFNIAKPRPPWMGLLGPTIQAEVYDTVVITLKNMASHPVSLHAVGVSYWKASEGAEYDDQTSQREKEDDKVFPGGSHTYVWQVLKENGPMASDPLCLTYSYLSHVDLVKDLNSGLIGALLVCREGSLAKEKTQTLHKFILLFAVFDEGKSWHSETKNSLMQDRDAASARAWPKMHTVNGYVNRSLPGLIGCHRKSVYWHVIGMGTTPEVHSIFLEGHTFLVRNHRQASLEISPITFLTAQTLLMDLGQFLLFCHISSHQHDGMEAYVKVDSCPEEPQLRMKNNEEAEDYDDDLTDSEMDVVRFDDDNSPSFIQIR
T1 sequence 2: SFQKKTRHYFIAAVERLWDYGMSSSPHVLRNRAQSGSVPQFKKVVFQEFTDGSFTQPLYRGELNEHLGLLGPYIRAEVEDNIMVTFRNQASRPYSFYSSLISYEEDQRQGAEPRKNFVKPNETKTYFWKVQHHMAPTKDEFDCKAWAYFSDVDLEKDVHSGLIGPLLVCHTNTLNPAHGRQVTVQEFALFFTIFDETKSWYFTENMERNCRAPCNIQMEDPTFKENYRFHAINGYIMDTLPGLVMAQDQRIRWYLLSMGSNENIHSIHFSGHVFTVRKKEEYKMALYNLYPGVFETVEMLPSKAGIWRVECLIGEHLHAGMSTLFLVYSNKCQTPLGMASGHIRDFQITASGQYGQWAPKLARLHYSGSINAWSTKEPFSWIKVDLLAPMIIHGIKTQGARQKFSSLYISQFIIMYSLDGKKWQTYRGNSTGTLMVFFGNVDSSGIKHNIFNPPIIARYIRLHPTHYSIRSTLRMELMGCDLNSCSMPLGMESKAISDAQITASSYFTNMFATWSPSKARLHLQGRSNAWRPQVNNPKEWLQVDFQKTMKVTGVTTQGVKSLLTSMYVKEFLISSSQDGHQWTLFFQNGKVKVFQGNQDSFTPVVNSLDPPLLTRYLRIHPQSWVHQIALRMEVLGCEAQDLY

[2] = target: T2, factor VIIIa A1/A3C1C2 dimer, H281A (human, UniProt P00451 20-391; P00451 1709-2351)
T2 chain 1: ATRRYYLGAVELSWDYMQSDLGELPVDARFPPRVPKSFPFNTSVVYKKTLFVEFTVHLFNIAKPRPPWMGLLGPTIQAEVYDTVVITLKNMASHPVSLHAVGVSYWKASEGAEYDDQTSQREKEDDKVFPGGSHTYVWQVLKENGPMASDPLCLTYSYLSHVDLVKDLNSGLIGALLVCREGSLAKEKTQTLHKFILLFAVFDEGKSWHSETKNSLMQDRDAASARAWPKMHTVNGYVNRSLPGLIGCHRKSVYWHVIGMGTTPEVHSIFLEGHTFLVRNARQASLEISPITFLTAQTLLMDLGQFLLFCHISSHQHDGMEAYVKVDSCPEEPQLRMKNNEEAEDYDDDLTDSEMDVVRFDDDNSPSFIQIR
T2 chain 2: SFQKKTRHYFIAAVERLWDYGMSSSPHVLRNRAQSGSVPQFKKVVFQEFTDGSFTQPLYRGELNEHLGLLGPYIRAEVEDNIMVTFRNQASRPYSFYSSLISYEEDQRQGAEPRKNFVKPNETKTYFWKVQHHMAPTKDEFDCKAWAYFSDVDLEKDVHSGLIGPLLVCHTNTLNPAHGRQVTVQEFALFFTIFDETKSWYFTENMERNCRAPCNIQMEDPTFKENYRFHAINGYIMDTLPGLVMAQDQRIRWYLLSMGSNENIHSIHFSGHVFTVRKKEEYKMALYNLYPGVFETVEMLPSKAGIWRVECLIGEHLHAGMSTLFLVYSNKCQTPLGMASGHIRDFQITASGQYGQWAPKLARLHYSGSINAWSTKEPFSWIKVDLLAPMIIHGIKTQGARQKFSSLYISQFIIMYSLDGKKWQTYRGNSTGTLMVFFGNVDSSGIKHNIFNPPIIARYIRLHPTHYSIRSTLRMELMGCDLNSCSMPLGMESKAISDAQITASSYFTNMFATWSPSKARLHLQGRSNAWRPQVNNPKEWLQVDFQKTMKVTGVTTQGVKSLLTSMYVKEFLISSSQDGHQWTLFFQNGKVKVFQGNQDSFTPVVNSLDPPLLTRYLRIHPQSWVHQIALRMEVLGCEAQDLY

[3] = target: T1, factor VIIIa A1/A3C1C2 dimer, wild type; remark: listed apart in the source
[4] = target: T3, factor VIIIa A1/A3C1C2 dimer, Glu1984Val (human, UniProt P00451 20-391; P00451 1709-2351)
T3 sequence 1: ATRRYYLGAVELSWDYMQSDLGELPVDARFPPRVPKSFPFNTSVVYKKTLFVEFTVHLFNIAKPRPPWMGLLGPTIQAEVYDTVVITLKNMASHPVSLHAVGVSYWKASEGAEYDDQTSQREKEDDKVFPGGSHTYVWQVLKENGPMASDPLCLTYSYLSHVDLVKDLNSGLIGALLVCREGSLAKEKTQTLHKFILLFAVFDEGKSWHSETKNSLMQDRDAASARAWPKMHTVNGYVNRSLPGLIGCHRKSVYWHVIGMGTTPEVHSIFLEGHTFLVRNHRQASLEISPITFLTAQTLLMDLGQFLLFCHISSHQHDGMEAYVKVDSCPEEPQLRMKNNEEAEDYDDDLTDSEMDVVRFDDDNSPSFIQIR
T3 sequence 2: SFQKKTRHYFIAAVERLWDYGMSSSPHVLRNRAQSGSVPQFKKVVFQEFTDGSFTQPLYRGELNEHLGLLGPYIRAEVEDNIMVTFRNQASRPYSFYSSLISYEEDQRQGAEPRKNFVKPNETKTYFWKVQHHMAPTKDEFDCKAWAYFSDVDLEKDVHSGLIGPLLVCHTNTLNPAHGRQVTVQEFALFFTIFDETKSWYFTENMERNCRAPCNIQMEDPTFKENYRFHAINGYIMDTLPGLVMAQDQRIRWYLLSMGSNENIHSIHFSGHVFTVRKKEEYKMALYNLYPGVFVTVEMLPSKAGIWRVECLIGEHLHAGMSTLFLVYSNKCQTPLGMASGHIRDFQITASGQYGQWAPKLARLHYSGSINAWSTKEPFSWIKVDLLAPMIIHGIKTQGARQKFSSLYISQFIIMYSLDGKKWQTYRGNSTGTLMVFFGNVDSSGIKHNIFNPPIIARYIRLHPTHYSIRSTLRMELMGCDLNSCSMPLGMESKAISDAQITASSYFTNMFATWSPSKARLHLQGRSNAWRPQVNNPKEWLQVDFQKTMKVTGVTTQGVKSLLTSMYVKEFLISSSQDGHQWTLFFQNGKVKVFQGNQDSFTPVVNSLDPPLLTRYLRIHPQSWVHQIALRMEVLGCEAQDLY

[5] = target: T4, factor VIIIa A1/A3C1C2 dimer, E113A and E1984V (human, UniProt P00451 20-391; P00451 1709-2351)
T4 chain 1: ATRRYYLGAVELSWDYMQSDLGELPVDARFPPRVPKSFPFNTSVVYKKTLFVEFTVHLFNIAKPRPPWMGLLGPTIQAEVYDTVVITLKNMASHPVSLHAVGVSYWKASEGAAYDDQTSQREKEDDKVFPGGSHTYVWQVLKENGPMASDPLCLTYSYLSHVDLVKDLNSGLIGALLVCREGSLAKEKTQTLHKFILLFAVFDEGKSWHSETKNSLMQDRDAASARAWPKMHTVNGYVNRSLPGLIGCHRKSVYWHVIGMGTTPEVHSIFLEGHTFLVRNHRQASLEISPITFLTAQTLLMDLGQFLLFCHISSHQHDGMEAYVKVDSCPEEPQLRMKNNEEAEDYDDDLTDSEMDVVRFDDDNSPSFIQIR
T4 chain 2: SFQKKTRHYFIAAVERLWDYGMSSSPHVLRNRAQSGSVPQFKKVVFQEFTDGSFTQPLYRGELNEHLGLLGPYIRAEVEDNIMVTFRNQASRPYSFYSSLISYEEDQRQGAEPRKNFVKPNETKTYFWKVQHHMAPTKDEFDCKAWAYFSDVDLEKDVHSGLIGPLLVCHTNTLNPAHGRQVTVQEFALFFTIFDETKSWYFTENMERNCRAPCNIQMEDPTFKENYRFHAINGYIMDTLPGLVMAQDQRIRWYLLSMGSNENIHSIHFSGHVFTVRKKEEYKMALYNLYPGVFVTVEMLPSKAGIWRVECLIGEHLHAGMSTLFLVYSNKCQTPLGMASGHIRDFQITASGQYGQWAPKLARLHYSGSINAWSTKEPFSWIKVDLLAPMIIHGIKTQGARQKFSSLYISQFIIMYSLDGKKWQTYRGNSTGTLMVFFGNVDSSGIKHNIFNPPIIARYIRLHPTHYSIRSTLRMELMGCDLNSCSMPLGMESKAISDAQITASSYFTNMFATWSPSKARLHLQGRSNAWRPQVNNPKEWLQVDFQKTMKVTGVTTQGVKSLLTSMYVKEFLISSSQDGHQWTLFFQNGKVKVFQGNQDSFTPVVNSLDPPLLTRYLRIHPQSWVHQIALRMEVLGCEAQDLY

B1: factor VIIIa A2 subunit, wild type (other)
chain: SVAKKHPKTWVHYIAAEEEDWDYAPLVLAPDDRSYKSQYLNNGPQRIGRKYKKVRFMAYTDETFKTREAIQHESGILGPLLYGEVGDTLLIIFKNQASRPYNIYPHGITDVRPLYSRRLPKGVKHLKDFPILPGEIFKYKWTVTVEDGPTKSDPRCLTRYYSSFVNMERDLASGLIGPLLICYKESVDQRGNQIMSDKRNVILFSVFDENRSWYLTENIQRFLPNPAGVQLEDPEFQASNIMHSINGYVFDSLQLSVCLHEVAYWYILSIGAQTDFLSVFFSGYTFKHKMVYEDTLTLFPFSGETVFMSMENPGLWILGCHNSDFRNRGMTALLKVSSCDKNTGDYYEDSYEDISAYLLSKNNAIEPR
[1]
  Factor VIIIa decay rate relative to wild type, FIXa (+): 1 relative to wild type
  Factor VIIIa decay rate relative to wild type, FIXa (-): 1 relative to wild type
  Factor VIIIa decay rate, FIXa (+): 0.0113 min⁻¹
  Factor VIIIa decay rate, FIXa (-): 0.0631 min⁻¹
[2]
  Factor VIIIa decay rate relative to wild type, FIXa (+): 3.99 relative to wild type
  Factor VIIIa decay rate, FIXa (+): 0.045 min⁻¹
[3]
  Decay rate relative to wild type, Factor VIIIa (1.5 nM, factor IXa absent): 1 relative to wild type
  Decay rate, Factor VIIIa (1.5 nM factor VIIIa, factor IXa absent): 0.14 min⁻¹
[4]
  Decay rate relative to wild type, Factor VIIIa (1.5 nM, factor IXa absent): 0.34 relative to wild type
  Decay rate, Factor VIIIa (1.5 nM factor VIIIa, factor IXa absent): 0.0471 min⁻¹
[5]
  Decay rate relative to wild type, Factor VIIIa (1.5 nM, factor IXa absent): 0.4 relative to wild type
  Decay rate, Factor VIIIa (1.5 nM factor VIIIa, factor IXa absent): 0.0567 min⁻¹
